“Also recorded” adds a separate entry of the source. Values belong to the molecule of their own block, whether it stands above or below them.
Key:
[1] = target: T1, recombinant human LAMP1 coated on plate (Homo sapiens, UniProt P11279); assay: Binding competition between anti-LAMP1 mAbs by ELISA
T1 construct: made in house; host or cells: HEK293 (293-F), transient expression, IMAC-purified
T1 sequence (P11279 with tags, fused parts or gaps): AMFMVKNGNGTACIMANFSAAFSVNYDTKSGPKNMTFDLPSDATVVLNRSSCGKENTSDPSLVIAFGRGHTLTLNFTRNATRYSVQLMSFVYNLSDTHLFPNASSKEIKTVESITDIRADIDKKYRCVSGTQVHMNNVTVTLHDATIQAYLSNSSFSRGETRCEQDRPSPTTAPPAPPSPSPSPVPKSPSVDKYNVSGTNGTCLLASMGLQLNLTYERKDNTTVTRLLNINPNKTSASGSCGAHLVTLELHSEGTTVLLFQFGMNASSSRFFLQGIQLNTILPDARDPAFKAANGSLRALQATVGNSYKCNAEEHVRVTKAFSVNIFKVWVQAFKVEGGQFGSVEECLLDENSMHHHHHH
Source text: MAb format was chosen so that the two mAbs had different Fc domains (either human or murine). […] The results were reported as a percentage of the value obtained from the mAb alone at the same concentration.
MAb format was chosen so that the two mAbs had different Fc domains (either human or murine). Individual measurements of mAb binding could be performed specifically by their unique specific binding to Fc (with Peroxidase-AffiniPure Goat Anti-Human IgG Ab, Fcγ Fragment Specific (Jackson 109-035-098) or with Peroxidase-AffiniPure Goat Anti-Mouse IgG Ab, Fcγ Fragment Specific (Jackson 115-035-164)). Results were reported as a percentage of the value obtained from the mAb alone at the same concentration, see Table 8.

[2] = target: T2, Mouse LAMP1 (Mus musculus, UniProt P11438); assay: ELISA on mouse LAMP1 extracellular domain; assay type: binding
T2 construct: made in house; host or cells: HEK293 (293-F), transient expression, IMAC-purified
T2 sequence (P11438 with tags, fused parts or gaps): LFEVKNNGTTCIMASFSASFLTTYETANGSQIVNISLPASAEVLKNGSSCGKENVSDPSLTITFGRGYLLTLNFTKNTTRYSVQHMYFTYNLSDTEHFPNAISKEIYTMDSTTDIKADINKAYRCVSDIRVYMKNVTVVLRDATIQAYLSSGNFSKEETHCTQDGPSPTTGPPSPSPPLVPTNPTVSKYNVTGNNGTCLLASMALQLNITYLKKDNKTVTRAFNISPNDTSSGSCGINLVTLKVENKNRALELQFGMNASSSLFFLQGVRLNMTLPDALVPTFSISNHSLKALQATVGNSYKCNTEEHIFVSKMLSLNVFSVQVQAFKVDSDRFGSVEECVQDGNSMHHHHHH
Source text: The high level of glycosylation of the antigen required a specific approach to determine the binding site of the anti-LAMP1 mAbs on LAMP1. […] This absence of binding was used to design several chimeric LAMP1 proteins in which one or several of the LAMP1 domains (Loop1-Loop4) in the human construct were replaced by the murine counterpart. The absence of binding once the binding site of the antibody was replaced by the murine counterpart allowed for identification of the antibody binding side.
Secreted LAMP1 proteins described in example 6.2 were used to identify the binding domain to anti-LAMP1 mAbs by ELISA.

[3] = target: T3, LAMP1 in FFPE colon adenocarcinoma PDX CR-LRB-010P and human breast carcinoma (Homo sapiens, UniProt P11279); assay: IHC on FFPE tumor tissue, LAMP1 membrane reinforcement; details: FFPE samples
T3 construct: from tissue; host or cells: human tumoral and non-tumoral tissue sections and PDX tumour sections (frozen-OCT, AFA, FFPE)
T3 sequence (P11279 29-417): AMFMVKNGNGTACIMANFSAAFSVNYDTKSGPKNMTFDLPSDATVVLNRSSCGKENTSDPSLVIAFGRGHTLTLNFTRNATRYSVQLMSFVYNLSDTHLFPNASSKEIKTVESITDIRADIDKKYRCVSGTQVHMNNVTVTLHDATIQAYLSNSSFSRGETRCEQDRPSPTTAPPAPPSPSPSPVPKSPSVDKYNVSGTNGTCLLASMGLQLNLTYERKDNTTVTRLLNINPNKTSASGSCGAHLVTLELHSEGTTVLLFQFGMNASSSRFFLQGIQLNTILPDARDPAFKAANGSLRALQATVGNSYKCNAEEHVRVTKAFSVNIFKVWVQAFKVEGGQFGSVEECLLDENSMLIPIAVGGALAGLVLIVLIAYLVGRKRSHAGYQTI
Source text: IHC analysis of tumor tissues from biobanks or from hospitals before or during patient treatment is routinely done with formalin-fixed paraffin-embedded (FFPE) samples. […] One of the reasons is probably the effect of the formalin fixative combined to the complexity of the protein. Samples processed in frozen OCT or AFA are not routinely prepared in hospitals. Therefore, there is a need to have a mAb that would allow complete and fast coverage of the FFPE tumor biobanks and hospital samples.
Rabbit polyclonal antibodies generated with peptides described in example 17.1.1 were tested by IHC on FFPE sample of colon adenocarcinoma patient derived xenograft CR-LRB-010P and human breast carcinoma. After antigen retrieval procedure and endogen biotins blocking steps, slides were incubated with the primary anti-antibody for 1 hour at 24° C. Negative controls were performed by omission of the primary antibody. The biotin free anti-rabbit UltraMap™ horseradish peroxidase (HRP) conjugate (760-4315, Ventana Medical Systems, Inc, USA) was used as secondary antibody system according to manufacturer's recommendations. A couterstaining step was done with hematoxylin (760-2037, Ventana Medical Systems, Inc, USA) and bluing reagent was applied (760-2037, Ventana Medical Systems, Inc, USA). Stained slides were dehydrated and coverslipped with cytoseal XYL (8312-4, Richard-Allan Scientific, USA).
As the same manner as in example 17.1.2, IHC screening was performed with the hybridoma supernatant to identify mouse monoclonal antibody showing LAMP1 membrane reinforcement on FFPE sample of colon adenocarcinoma patient derived xenograft CR-LRB-010P. The biotin free anti-mouse UltraMap™ horseradish peroxidase (HRP) conjugate (760-152, Ventana Medical Systems, Inc, USA) was used as secondary antibody system according to manufacturer's recommendations.

[4] = mAb alone 0.06 mg/L, Secondary Ab Anti-Human IgG_HRP
[5] = mAb alone 0.06 mg/L, Secondary Ab Anti-Mouse IgG_HRP
[6] = mAb alone 15 mg/L, Secondary Ab Anti-Human IgG_HRP
[7] = mAb alone 15 mg/L, Secondary Ab Anti-Mouse IgG_HRP

- competition between MAb2 and MAb3 for binding to LAMP1 ([1]; ELISA): partially compete
- competition with H4A3 for binding to LAMP1 ([1]; ELISA): partially competes
- Percentage of signal compared to mAb control alone [1, 4]: 0%
- Percentage of signal compared to mAb control alone [1, 5]: 100%
- Percentage of signal compared to mAb control alone [1, 6]: 0%
- Percentage of signal compared to mAb control alone [1, 7]: 100%
B1: MAb2: murine monoclonal anti-LAMP1 antibody, VH SEQ ID NO: 8, VL SEQ ID NO: 12 (antibody, V domains shown)
VH: QVQLQQSAAELARPGASVKMSCKASGYTFTSYTMHWVKQRPGQGLEWIGYFNPSSGYPEYNQKFKDKTTLTADKSSNTAFIQLNSLTSEDSAVYYCSRGYYYGSRGYALDFWGQGASVTVSS
VL: NIVLTQSPVSLAVSLGQRATISCRASESVDINGNTFMHWYQQKPGQSPKLVIYAASNIESGVPARFSGSGSSTDFTFTIDPVEADDVATYYCQQNIEDPWTFGGGTKVEIK
modifications: antibod fragment; antibody fragment
- competition with MAb1 for binding to LAMP1 ([1]; ELISA): No competition was observed; also recorded: does not compete
- EC50 (nM) Mouse LAMP1 [2]: do not show any binding; also recorded: No binding
- LAMP1 membrane reinforcement in FFPE format by IHC [3]: can not lead to the detection of LAMP1 reinforcement in FFPE format

- competition with H4A3 for binding to LAMP1 ([1]; ELISA): does not compete
- Percentage of signal compared to mAb control alone [1, 4]: 0%
- Percentage of signal compared to mAb control alone [1, 5]: 100%
- Percentage of signal compared to mAb control alone [1, 6]: 0%
- Percentage of signal compared to mAb control alone [1, 7]: 100%
B2: MAb1: murine monoclonal anti-LAMP1 antibody, VH SEQ ID NO: 1, VL SEQ ID NO: 5 (antibody, V domains shown)
VH: QVQLQQSGAELVKPGASVKMSCKASGYIFTNYNIHWVKKSPGQGLEWIGAIYPGNGDAPYSQKFKDKATLTADKSSSTTYMQLSRLTSEDSAVYYCVRANWDVAFAYWGQGTLVSVSA
VL: DIQMTQSPPSLSASLGGKVTITCKASQDIDRYMAWYQDKPGKGPRLLIHDTSTLQPGIPSRFSGSGSGRDYSFSISNLEPEDIATYYCLQYDNLWTFGGGTKLEIK
modifications: Antibody Fragment; antibody fragment
- EC50 (nM) Mouse LAMP1 [2]: do not show any binding; also recorded: No binding
- LAMP1 membrane reinforcement in FFPE format by IHC [3]: can not lead to the detection of LAMP1 reinforcement in FFPE format
